Assay [1] concerns the target human ENaC αβγ_(V182G;V193G) (human) (UniProt P37088).
Assay [2] concerns the target wild-type human epithelial Na+ channel (α, β, γ ENaC) (human) (UniProt P37088).
The target of assay [3] is human ENaC αβγ_(V182G;V193G) (human) (UniProt P37088). The source holds these as a separate data set.
The target of assay [4] is wild-type human epithelial Na+ channel (α, β, γ ENaC) (human) (UniProt P37088). This is another data set of the same source.
For assay [5] the target is unchanged. The source holds these as a separate data set.
In assay [6] the target is human ENaC αβγTh (thrombin consensus sequence LVPRG at γ186-190) (human) (UniProt P37088).
For assay [7], the target named is human ENaC αβγ_(V182G;V193G) (human) (UniProt P37088). The source holds these as a separate data set.
The target of assay [8] is wild-type human epithelial Na+ channel (α, β, γ ENaC) (human) (UniProt P37088). This is another data set of the same source.
Assay [9] concerns the target human ENaC αβγ_(V182G;V193G) (human) (UniProt P37088). This is another data set of the same source.
For assay [10], the target named is human ENaC αβγ_(A190G) (human) (UniProt P37088).
In assay [11] the target is wild-type human epithelial Na+ channel (α, β, γ ENaC) (human) (UniProt P37088). The source holds these as a separate data set.
The target of assay [12] is human ENaC αβγ_(A190G) (human) (UniProt P37088). This is another data set of the same source.
Assay [13] concerns the target human ENaC αβγ_(V182G;V193G) (human) (UniProt P37088). This is another data set of the same source.
The target of assay [14] is wild-type human epithelial Na+ channel (α, β, γ ENaC) (human) (UniProt P37088). This is another data set of the same source.

“human neutrophil elastase (from UniProt P08246 30-267) (enzyme)”: the K1/2 (NE concentration at half maximal stimulation of ΔIPR^Norm) in [1] was 510 nM; in assay [2], 100 nM. Besides, the apparent KM from kobs (1/τ) of INa activation against NE concentration (Eq. 8) in assay [2] amounted to 0.57 µM. Further, the ΔIPR^Norm against NE concentration, 30 to 1,000 nM, aprotinin-treated FRT cells in assay [3] is 0.52; in [4] it was 0.75. The substance also registered a ΔIPR^Norm, 300 nM NE, aprotinin-treated FRT cells (comparison with αβγTh) in assay [5] of 0.6.
In the case of human α thrombin (enzyme), in assay [6], the K1/2 (TH concentration at half maximal stimulation of ΔIPR^Norm) is 14.8 nM and the apparent KM from kobs of INa activation against TH concentration (Eq. 8) was 0.34 µM. This substance also registered a ΔIPR^Norm, 300 nM TH, aprotinin-treated FRT cells in assay [5] of 0.1.
As for “porcine pancreatic elastase (from UniProt P00772 27-266) (enzyme)”, the time constant τ of INa activation by 300 nM PE, aprotinin-treated FRT cells in [7] stood at 3.6 min; in [8] it was 2 min. Moreover, the time constant τ of INa activation by 1,000 nM PE, aprotinin-treated FRT cells in [9] stood at 2.17 min; in assay [11] it was 1.94 min. Besides, the figures for the ΔIPR^Norm, 1,000 nM PE, aprotinin-treated FRT cells in [9], in assay [10] and in assay [11] were 0.89, 0.26 and 0.7, respectively. Further, the K1/2 (PE concentration at half maximal stimulation of ΔIPR^Norm) in [12] amounted to 1140 nM; in [13], 35 nM; in assay [14], 77 nM. For the same substance, the figures for the apparent KM from kobs of INa activation against PE concentration (Eq. 8) in assay [13] and in assay [14] were 0.29 µM and 0.204 µM, respectively. This substance registered a ΔIPR^Norm, 300 nM PE, aprotinin-treated FRT cells (comparison with αβγTh) in assay [5] of 0.7.

Source of the values: paper PMC2151661.
